Data taken from publication PMC2288894.

Legend:
[1] = target: the class I heavy chains (H-2Kb, Db, Kd, and Ld; Fig. 9); assay: co-IP
[2] = target: H-2Kd class I heavy chain (mouse (endogenous in MDAY-D2)); assay: cross-linking
[3] = target: H-2Db class I heavy chain (mouse (endogenous in EL4)); assay: cross-linking
[4] = target: H-2Kb class I heavy chain (mouse (endogenous in EL4)); assay: cross-linking
[5] = target: H-2Ld class I heavy chain (mouse (endogenous in MDAY-D2)); assay: cross-linking
[6] = target: the other three class I molecules (Bio-Gel A0.5m); assay: SEC

Sequence of H-2Kb class I heavy chain (mouse (endogenous in EL4)) (P01901 22-369): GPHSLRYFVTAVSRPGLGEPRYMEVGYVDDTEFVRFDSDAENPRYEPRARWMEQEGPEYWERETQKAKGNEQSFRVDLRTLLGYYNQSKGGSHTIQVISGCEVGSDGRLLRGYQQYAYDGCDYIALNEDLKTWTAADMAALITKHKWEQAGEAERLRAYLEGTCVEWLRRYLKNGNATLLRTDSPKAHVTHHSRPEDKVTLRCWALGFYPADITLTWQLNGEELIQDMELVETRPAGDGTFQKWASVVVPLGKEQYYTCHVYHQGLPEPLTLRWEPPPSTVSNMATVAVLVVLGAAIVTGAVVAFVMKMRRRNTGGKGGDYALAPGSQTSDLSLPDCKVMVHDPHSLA
Sequence of H-2Db class I heavy chain (mouse (endogenous in EL4)) (P01899 25-362): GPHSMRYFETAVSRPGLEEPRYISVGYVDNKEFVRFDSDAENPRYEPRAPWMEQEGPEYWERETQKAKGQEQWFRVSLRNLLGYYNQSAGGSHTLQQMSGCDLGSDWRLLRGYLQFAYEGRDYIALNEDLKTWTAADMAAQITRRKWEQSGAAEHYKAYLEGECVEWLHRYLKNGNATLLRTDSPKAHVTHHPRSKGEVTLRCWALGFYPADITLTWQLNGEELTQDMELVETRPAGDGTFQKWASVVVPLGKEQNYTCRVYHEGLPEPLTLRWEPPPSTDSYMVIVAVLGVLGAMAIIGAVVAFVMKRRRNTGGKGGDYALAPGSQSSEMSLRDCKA
Sequence of H-2Kd class I heavy chain (mouse (endogenous in MDAY-D2)) (P01902 22-368): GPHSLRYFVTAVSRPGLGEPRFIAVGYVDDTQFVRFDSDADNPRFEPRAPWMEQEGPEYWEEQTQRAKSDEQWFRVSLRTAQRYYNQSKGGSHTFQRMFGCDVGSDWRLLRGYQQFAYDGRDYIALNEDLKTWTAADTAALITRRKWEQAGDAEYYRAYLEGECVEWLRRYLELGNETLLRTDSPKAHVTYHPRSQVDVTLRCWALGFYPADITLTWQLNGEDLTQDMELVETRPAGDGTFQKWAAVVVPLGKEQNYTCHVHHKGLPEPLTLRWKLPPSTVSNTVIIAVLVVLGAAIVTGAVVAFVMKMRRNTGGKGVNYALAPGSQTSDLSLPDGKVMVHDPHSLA
Sequence of H-2Ld class I heavy chain (mouse (endogenous in MDAY-D2)) (P01897 25-362): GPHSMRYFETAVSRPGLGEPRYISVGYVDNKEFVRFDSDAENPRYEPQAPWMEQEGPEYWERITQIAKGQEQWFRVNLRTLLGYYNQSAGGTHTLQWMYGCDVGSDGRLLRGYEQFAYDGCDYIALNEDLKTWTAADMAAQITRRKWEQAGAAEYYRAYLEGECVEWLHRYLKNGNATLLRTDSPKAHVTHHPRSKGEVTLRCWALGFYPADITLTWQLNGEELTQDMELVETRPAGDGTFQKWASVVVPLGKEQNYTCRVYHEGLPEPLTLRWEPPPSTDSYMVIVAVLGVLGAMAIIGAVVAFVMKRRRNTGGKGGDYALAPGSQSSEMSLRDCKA

Row | Molecule | half-time of association post pulse (in cells) [1] [min] | half-time of disappearance of the complex after the pulse (in cells) [2] [min] | half-time of disappearance of the complex after the pulse (in cells) [3] [min] | half-time of p88 dissociation in the presence of BFA (in cells) [3] [min] | half-time of disappearance of the complex after the pulse (in cells) [4] [min] | half-time of p88 dissociation in the presence of BFA (in cells) [4] [min] | half-time of disappearance of the complex after the pulse (in cells) [5] [min] | percent of heavy chains in the oligomeric species in the pulse-labeled sample [6] [%]
1 | beta 2-microglobulin (from UniProt P01887 21-119) (natural protein) | 2 to 5 | – | – | – | – | – | – | –
2 | p88 (novel 88-kD protein) (natural protein) HDGHDDDAIDIEDDLDDVIEEVEDSKSKSDASTPPSPKVTYKAPVPTGEVYFADSFDRGSLSGWILSKAKKDDTDDEIAKYDGKWEVDEMKETKLPGDKGLVLMSRAKHHAISAKLNKPFLFDTKPLIVQYEVNFQNGIECGGAYVKLLSKTAELSLDQFHDKTPYTIMFGPDKCGEDYKLHFIFRHKNPKTGVYEEKHAKRPDADLKTYFTDKKTHLYTLILNPDNSFEILVDQSVVNSGNLLNDMTPPVNPSREIEDPEDRKPEDWDERPKIADPDAVKPDDWDEDAPSKIPDEEATKPEGWLDDEPEYIPDPDAEKPEDWDEDMDGEWEAPQIANPKCESAPGCGVWQRPMIDNPNYKGKWKPPMIDNPNYQGIWKPRKIPNPDFFEDLEPFKMTPFSAIGLELWSMTSDIFFDNFIISGDRRVVDDWANDGWGLKKAADGAAEPGVVLQMLEAAEERPWLWVVYILTVALPVFLVILFCCSGKKQSNAMEYKKTDAPQPDVKDEEGKEEEKNKRDEEEEEEKLEEKQKSDAEEDGVTGSQDEEDSKPKAEEDEILNRSPRNRKPRRE | – | 38 | 45 | 42 | 20 | 23 | 45 | 20 to 60
